Assay results reported in patent US20220177581A1 (Memorial Sloan Kettering, published 2022).
Where a chain is given by its changes, count along the chain named.

T1: CD22 (antigen in the Biacore assay) (human, UniProt P20273 20-687, limits assumed)
T1 sequence: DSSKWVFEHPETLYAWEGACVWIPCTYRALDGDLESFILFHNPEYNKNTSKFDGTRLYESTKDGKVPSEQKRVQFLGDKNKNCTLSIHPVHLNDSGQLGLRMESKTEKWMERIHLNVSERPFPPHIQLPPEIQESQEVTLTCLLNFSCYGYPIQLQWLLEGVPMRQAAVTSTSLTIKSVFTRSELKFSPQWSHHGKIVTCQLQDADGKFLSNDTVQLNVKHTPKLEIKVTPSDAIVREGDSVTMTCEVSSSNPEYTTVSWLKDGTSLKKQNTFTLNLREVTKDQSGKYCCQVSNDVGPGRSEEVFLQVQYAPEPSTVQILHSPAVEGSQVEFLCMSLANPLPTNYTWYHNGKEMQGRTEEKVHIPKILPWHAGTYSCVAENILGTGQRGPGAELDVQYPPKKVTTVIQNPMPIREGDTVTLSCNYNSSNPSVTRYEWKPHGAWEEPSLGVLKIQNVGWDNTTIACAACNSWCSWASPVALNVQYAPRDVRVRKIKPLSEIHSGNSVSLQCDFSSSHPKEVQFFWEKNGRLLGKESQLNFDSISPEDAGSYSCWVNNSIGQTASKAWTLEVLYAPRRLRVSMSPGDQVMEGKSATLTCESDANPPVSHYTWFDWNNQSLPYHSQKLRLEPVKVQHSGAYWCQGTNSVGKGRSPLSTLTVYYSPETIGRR

T2: CD22 (UniProtKB-P20273) on CD22(+) cells (human, UniProt P20273 20-847)
T2 construct: Endogenous CD22 on the NALM6 and Raji cell lines; also called SIGLEC-2; BL-CAM
T2 sequence: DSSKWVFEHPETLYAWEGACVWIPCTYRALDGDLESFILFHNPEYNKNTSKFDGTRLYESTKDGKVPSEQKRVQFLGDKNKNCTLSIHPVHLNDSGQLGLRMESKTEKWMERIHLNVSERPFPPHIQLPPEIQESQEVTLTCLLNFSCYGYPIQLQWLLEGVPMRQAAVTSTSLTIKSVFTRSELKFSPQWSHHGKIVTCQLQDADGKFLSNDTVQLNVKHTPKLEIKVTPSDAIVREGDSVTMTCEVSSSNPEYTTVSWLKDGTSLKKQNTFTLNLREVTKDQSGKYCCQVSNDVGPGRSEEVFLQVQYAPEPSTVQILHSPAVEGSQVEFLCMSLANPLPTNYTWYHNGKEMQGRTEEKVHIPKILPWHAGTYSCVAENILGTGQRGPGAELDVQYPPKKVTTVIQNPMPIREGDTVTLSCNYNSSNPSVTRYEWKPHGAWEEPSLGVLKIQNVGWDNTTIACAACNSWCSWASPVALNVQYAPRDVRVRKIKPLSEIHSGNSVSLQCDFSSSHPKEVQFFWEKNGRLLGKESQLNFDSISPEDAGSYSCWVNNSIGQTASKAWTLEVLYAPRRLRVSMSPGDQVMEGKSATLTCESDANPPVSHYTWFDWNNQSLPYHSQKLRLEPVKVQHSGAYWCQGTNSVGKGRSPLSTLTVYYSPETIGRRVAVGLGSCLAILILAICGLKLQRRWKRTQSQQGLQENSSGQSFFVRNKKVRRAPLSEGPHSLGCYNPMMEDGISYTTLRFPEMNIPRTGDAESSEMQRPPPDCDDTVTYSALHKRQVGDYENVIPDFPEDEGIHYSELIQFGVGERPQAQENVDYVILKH

B1: chimeric LL2 antibody (antibody, V domains shown)
VH: QVQLQESGAELSKPGASVKMSCKASGYTFTSYWLHWIKQRPGQGLEWIGYINPRNDYTEYNQNFKDKATLTADKSSSTAYMQLSSLTSEDSAVYYCARRDITTFYWGQGTTLTVSS
VL: DIQLTQSPSSLAVSAGENVTMSCKSSQSVLYSANHKNYLAWYQQKPGQSPKLLIYWASTRESGVPDRFTGSGSGTDFTLTISRVQVEDLAIYYCHQYLSSWTFGGGTKLEIK
notes: Murine LL2 variable domains with human constant domains (IgG1)
B2: humanized LL2 L2 + H2 (antibody, V domains shown)
VH: QVQLQESGAEVKKPGASVKMSCKASGYTFTSYWLHWIRQAPGQRLEWIGYINPRNDYTKYSQKFQGRVTLTRDKSASTAYMELSSLRSEDTAVYYCARRDITTFYWGQGTTLTVSS
VL: B1 VL with Q3V, S9D, A15L, N18R, S22N, T69S, R83S, V86A, L89V
notes: Human IgG1 frameworks
B3: humanized LL2 L1 + H9 (antibody, V domains shown)
VH: QVQLVQSGAEVKKPGASVKVSCKASGYTFTSYWLHWVRQAPGQRLEWIGYINPRNDYTEYNQNFKDRVTITADTSASTAYMELSSLRSEDTAVYYCARRDITTFYWGQGTTLTVSS
VL: B1 VL with Q3V, S9D, N18R, S22N, S49P, T69S, R83S, V86A, L89V
notes: Human IgG1 frameworks; also called H9L1
B4: humanized LL2 L1 + H12 (antibody, V domains shown)
VH: B3 VH with V5Q, V20M, I48M
VL: B1 VL with Q3V, S9D, N18R, S22N, S49P, T69S, R83S, V86A, L89V
notes: Human IgG1 frameworks; also called H12L1; VL1-VH12
B5: humanized LL2 L1 + H11 (antibody, V domains shown)
VH: B3 VH with V20M, I48M, V68A
VL: B1 VL with Q3V, S9D, N18R, S22N, S49P, T69S, R83S, V86A, L89V
notes: Human IgG1 frameworks; also called H11L1; VL1-VH11
B6: humanized LL2 L2 + H11 (antibody, V domains shown)
VH: B3 VH with V20M, I48M, V68A
VL: B1 VL with Q3V, S9D, A15L, N18R, S22N, T69S, R83S, V86A, L89V
notes: Human IgG1 frameworks
B7: humanized LL2 L1 + H4 (antibody, V domains shown)
VH: B2 VH with E6Q, I48M, K59E, S61N, V68A, L70I, R72A
VL: B1 VL with Q3V, S9D, N18R, S22N, S49P, T69S, R83S, V86A, L89V
notes: Human IgG1 frameworks; also called H4L1
B8: humanized LL2 L1 + H1 (antibody, V domains shown)
VH: B2 VH with Q5V, V68A, L70I, R72A
VL: B1 VL with Q3V, S9D, N18R, S22N, S49P, T69S, R83S, V86A, L89V
notes: Human IgG1 frameworks
B9: humanized LL2 L2 + H7 (antibody, V domains shown)
VH: B3 VH with Q6E, I48M, V68A, A72R
VL: B1 VL with Q3V, S9D, A15L, N18R, S22N, T69S, R83S, V86A, L89V
notes: Human IgG1 frameworks
B10: humanized LL2 L2 + H9 (antibody, V domains shown)
VH: B3 VH
VL: B1 VL with Q3V, S9D, A15L, N18R, S22N, T69S, R83S, V86A, L89V
notes: Human IgG1 frameworks
B11: humanized LL2 L2 + H6 (antibody, V domains shown)
VH: B3 VH with V5Q, V37I, I48M, A72R
VL: B1 VL with Q3V, S9D, A15L, N18R, S22N, T69S, R83S, V86A, L89V
notes: Human IgG1 frameworks
B12: humanized LL2 L1 + H5 (antibody, V domains shown)
VH: B2 VH with M20V, I37V, K59E, V68A, R72A, K74T
VL: B1 VL with Q3V, S9D, N18R, S22N, S49P, T69S, R83S, V86A, L89V
notes: Human IgG1 frameworks; also called H5L1
B13: humanized LL2 L1 + H3 (antibody, V domains shown)
VH: B2 VH with E6Q, M20V, K59E, V68A, R72A, K74T
VL: B1 VL with Q3V, S9D, N18R, S22N, S49P, T69S, R83S, V86A, L89V
notes: Human IgG1 frameworks; also called H3L1
B14: humanized LL2 L1 + H6 (antibody, V domains shown)
VH: B3 VH with V5Q, V37I, I48M, A72R
VL: B1 VL with Q3V, S9D, N18R, S22N, S49P, T69S, R83S, V86A, L89V
notes: Human IgG1 frameworks; also called H6L1
B15: humanized LL2 L2 + H1 (antibody, V domains shown)
VH: B2 VH with Q5V, V68A, L70I, R72A
VL: B1 VL with Q3V, S9D, A15L, N18R, S22N, T69S, R83S, V86A, L89V
notes: Human IgG1 frameworks; also called H1L2
B16: humanized LL2 L2 + H5 (antibody, V domains shown)
VH: B2 VH with M20V, I37V, K59E, V68A, R72A, K74T
VL: B1 VL with Q3V, S9D, A15L, N18R, S22N, T69S, R83S, V86A, L89V
notes: Human IgG1 frameworks
B17: humanized LL2 L2 + H8 (antibody, V domains shown)
VH: B3 VH with Q6E, V37I, I48M, A72R
VL: B1 VL with Q3V, S9D, A15L, N18R, S22N, T69S, R83S, V86A, L89V
notes: Human IgG1 frameworks
B18: humanized LL2 L2 + H4 (antibody, V domains shown)
VH: B2 VH with E6Q, I48M, K59E, S61N, V68A, L70I, R72A
VL: B1 VL with Q3V, S9D, A15L, N18R, S22N, T69S, R83S, V86A, L89V
notes: Human IgG1 frameworks
B19: humanized LL2 L2 + H12 (antibody, V domains shown)
VH: B3 VH with V5Q, V20M, I48M
VL: B1 VL with Q3V, S9D, A15L, N18R, S22N, T69S, R83S, V86A, L89V
notes: Human IgG1 frameworks
B20: humanized LL2 L1 + H7 (antibody, V domains shown)
VH: B3 VH with Q6E, I48M, V68A, A72R
VL: B1 VL with Q3V, S9D, N18R, S22N, S49P, T69S, R83S, V86A, L89V
notes: Human IgG1 frameworks
B21: humanized LL2 L1 + H10 (antibody, V domains shown)
VH: B3 VH with I48M, I70L, T74K
VL: B1 VL with Q3V, S9D, N18R, S22N, S49P, T69S, R83S, V86A, L89V
notes: Human IgG1 frameworks; also called H10L1
B22: humanized LL2 L1 + H8 (antibody, V domains shown)
VH: B3 VH with Q6E, V37I, I48M, A72R
VL: B1 VL with Q3V, S9D, N18R, S22N, S49P, T69S, R83S, V86A, L89V
notes: Human IgG1 frameworks
B23: humanized LL2 L2 + H3 (antibody, V domains shown)
VH: B2 VH with E6Q, M20V, K59E, V68A, R72A, K74T
VL: B1 VL with Q3V, S9D, A15L, N18R, S22N, T69S, R83S, V86A, L89V
notes: Human IgG1 frameworks
B24: humanized LL2 L2 + H10 (antibody, V domains shown)
VH: B3 VH with I48M, I70L, T74K
VL: B1 VL with Q3V, S9D, A15L, N18R, S22N, T69S, R83S, V86A, L89V
notes: Human IgG1 frameworks
B25: humanized LL2 L1 + H2 (antibody, V domains shown)
VH: B2 VH
VL: B1 VL with Q3V, S9D, N18R, S22N, S49P, T69S, R83S, V86A, L89V
notes: Human IgG1 frameworks; also called H2L1

Key:
[1] = molecular target: T1, CD22 (antigen in the Biacore assay); experiment: SPR (Biacore) at 37° C
[2] = molecular target: T2, CD22 (UniProtKB-P20273) on CD22(+) cells; experiment: flow cytometry on CD22(+) NALM6 cells

Binder	Kd [1]	koff [1]	kon [1]	MFI (FACS NALM6) [2]
B1	1.37 pM	2.31e-07 s⁻¹	169000 M⁻¹ s⁻¹	33.4
B2	–	–	–	28.1
B3	24.8 pM	3.3e-06 s⁻¹	133000 M⁻¹ s⁻¹	34.5
B4	2.05 pM	5.88e-07 s⁻¹	287000 M⁻¹ s⁻¹	39.2
B5	0.0104 pM	1.71e-09 s⁻¹	164000 M⁻¹ s⁻¹	33.6
B6	–	–	–	36.3
B7	0.00191 pM	–	154000 M⁻¹ s⁻¹	33.6
B8	–	–	–	26.4
B9	–	–	–	27.3
B10	–	–	–	34.3
B11	–	–	–	36.1
B12	41 pM	4.19e-06 s⁻¹	102000 M⁻¹ s⁻¹	35.2
B13	34.4 pM	3.09e-06 s⁻¹	89800 M⁻¹ s⁻¹	31.9
B14	0.17 pM	2.91e-08 s⁻¹	171000 M⁻¹ s⁻¹	33.5
B15	403 pM	0.00219 s⁻¹	5.43e+06 M⁻¹ s⁻¹	40
B16	–	–	–	40.4
B17	–	–	–	26.7
B18	–	–	–	35.9
B19	–	–	–	31.7
B20	–	–	–	21.8
B21	0.0435 pM	7.67e-09 s⁻¹	176000 M⁻¹ s⁻¹	32.7
B22	–	–	–	23.3
B23	–	–	–	36.8
B24	–	–	–	37
B25	1720 pM	0.00478 s⁻¹	2.77e+06 M⁻¹ s⁻¹	32.8
